Consider four sequences from the Immune Epitope Database (IEDB).

Test [1] concerns the target HLA-A*68:02. The test can be described thus: IEDB peptide-MHC binding, purified MHC/competitive/fluorescence; filed as Kd, often an IC50 or EC50 that approximates it; ≥ and ≤ were set here for values at or beyond the usual limits of such assays. The settings on record: source organism: Burkholderia mallei NCTC 10229.
In test [2] the target is HLA-B*15:17. Described as above.
Test [3] has as its target HLA-A*02:01. The description is as above. The settings on record: source organism: Burkholderia mallei NCTC 10229.
Test [4] deals with HLA-B*27:05. The test is described as above. As to conditions: source organism: Burkholderia mallei NCTC 10229.
In test [5] the target is HLA-B*15:01. The test is described as follows: IEDB peptide-MHC binding, purified MHC/direct/fluorescence; filed as Kd, often an IC50 or EC50 that approximates it; ≥ and ≤ were set here for values at or beyond the usual limits of such assays.
For the next test, the target named is HLA-A*03:01. Described as above. As to conditions: source organism: Burkholderia mallei.
Another test deals with HLA-A*31:01. The test is described as above.
Test [6] deals with HLA-B*18:01. The test is described as above.
The next test concerns the target HLA-B*40:01. Described as above.
Another test deals with HLA-A*01:01. Described as above.
Another test concerns the target HLA-B*08:02. Described as above.
In the next test the target is HLA-B*58:01. The test is described as above.
For test [7], the target named is HLA-B*07:02. Described as above.
The target of a further test is HLA-B*08:01. Described as above.
The target in a further test is HLA-A*11:01. The description is as above.
A further test addresses HLA-B*57:01. The test is described as above.
Another test concerns the target HLA-B*48:01. Described as above.
The target of test [8] is HLA-A*26:02. Described as above.
For another test, the target named is HLA-B*46:01. The description is as above.
A further test concerns the target HLA-A*26:01. The description is as above.
In test [9] the target is HLA-A*26:03. Described as above.
Test [10] deals with HLA-B*15:01. The test can be described thus: IEDB peptide-MHC binding, purified MHC/competitive/fluorescence; filed as Kd, often an IC50 or EC50 that approximates it; ≥ and ≤ were set here for values at or beyond the usual limits of such assays. As to conditions: source organism: Variola virus.
For test [11], the target named is HLA-B*18:01. The test is described as above. As to conditions: source organism: Variola virus.
The target of the next test is HLA-A*02:06. The test is described as above.
For test [12], the target named is HLA-A*26:02. Described as above.
The target of test [13] is HLA-A*26:03. The test is described as above.
Another test deals with HLA-A*69:01. The test is described as follows: IEDB peptide-MHC binding, purified MHC/direct/fluorescence; filed as Kd, often an IC50 or EC50 that approximates it; ≥ and ≤ were set here for values at or beyond the usual limits of such assays.
The target of test [14] is HLA-A*68:02. The description is as above.
Test [15] concerns the target HLA-A*02:01. The description is as above.
For a further test, the target named is HLA-A*24:03. Described as above. The settings on record: source organism: Cowpox virus.
For test [16], the target named is HLA-B*39:01. The test is described as follows: IEDB peptide-MHC binding, purified MHC/competitive/fluorescence; filed as Kd, often an IC50 or EC50 that approximates it; ≥ and ≤ were set here for values at or beyond the usual limits of such assays. As to conditions: source organism: Orthomarburgvirus marburgense.
The target in a further test is HLA-B*44:02. The test is described as follows: IEDB peptide-MHC binding, purified MHC/direct/fluorescence; filed as Kd, often an IC50 or EC50 that approximates it; ≥ and ≤ were set here for values at or beyond the usual limits of such assays. As to conditions: source organism: Orthomarburgvirus marburgense.
For another test, the target named is HLA-B*08:03. Described as above.
Test [17] addresses HLA-B*15:17. The description is as above.
In test [18] the target is HLA-B*27:05. The description is as above.
Test [19] deals with HLA-B*07:02. The test is described as follows: IEDB peptide-MHC binding, purified MHC/competitive/fluorescence; filed as Kd, often an IC50 or EC50 that approximates it; ≥ and ≤ were set here for values at or beyond the usual limits of such assays. As to conditions: source organism: Vaccinia virus WR.
In the next test the target is HLA-B*35:01. The description is as above. The settings on record: source organism: Vaccinia virus WR.
The target in test [20] is HLA-B*39:01. The test is described as follows: IEDB peptide-MHC binding, purified MHC/direct/fluorescence; filed as Kd, often an IC50 or EC50 that approximates it; ≥ and ≤ were set here for values at or beyond the usual limits of such assays. The settings on record: source organism: Cowpox virus.
Setting [21] is: source organism: Burkholderia mallei.
Where [22] appears, read: source organism: Burkholderia mallei ATCC 23344.
[23] abbreviates: source organism: Orthomarburgvirus marburgense.
Setting [24] is: source organism: Ravn virus - Ravn, Kenya, 1987.
The mark [25] stands for this setting: source organism: Vaccinia virus WR.

Take RRSLLAHVR: the Kd (usually the equilibrium constant for the complex coming apart) with HLA-A*68:02 [1] was 2.92 µM; with HLA-B*15:17 [2] (source organism: Burkholderia mallei NCTC 10229), not below 20 µM; in the test with HLA-A*02:01 [3], 0.034 µM; with HLA-B*27:05 [4], 0.0066 µM; with HLA-B*15:01 [5] (setting [21]), not below 20 µM; in the test with HLA-A*03:01 it was 1.18 µM. Moreover, the equilibrium dissociation constant (Kd) is 5.4 µM with HLA-A*31:01 (setting [21]); not below 20 µM with HLA-B*18:01 [6] (setting [21]); not below 20 µM with HLA-B*40:01 (setting [21]); not below 20 µM with HLA-A*01:01 (setting [21]); not below 20 µM with HLA-B*08:02 (setting [22]); not below 20 µM with HLA-B*58:01 (setting [21]). Moreover, the dissociation constant Kd with HLA-B*07:02 [7] (setting [21]) is not below 20 µM; with HLA-B*08:01 (setting [22]) it was not below 20 µM; in the test with HLA-A*11:01 (setting [21]), 1.13 µM; with HLA-B*57:01 (setting [21]), not below 20 µM; in the test with HLA-B*48:01 (setting [21]), not below 20 µM; in the test with HLA-A*26:02 [8] (setting [22]), not below 20 µM. In addition, the Kd with HLA-B*46:01 (setting [21]), in the test with HLA-A*26:01 (setting [22]) and with HLA-A*26:03 [9] (setting [22]) was not below 20 µM each time.
VYSFDESSF: the equilibrium dissociation constant (Kd) was 2.28 µM in the test with HLA-B*15:01 [10]; 0.379 µM in the test with HLA-B*18:01 [11]; not below 20 µM with HLA-A*02:06 (source organism: Variola virus); 2.1 µM with HLA-B*15:17 [2] (source organism: Variola virus); 0.192 µM with HLA-A*26:02 [12] (source organism: Variola virus); 1.42 µM in the test with HLA-A*26:03 [13] (source organism: Variola virus). In addition, the Kd in the test with HLA-A*31:01 (source organism: Cowpox virus), with HLA-A*69:01 (source organism: Cowpox virus), with HLA-A*01:01 (source organism: Cowpox virus), with HLA-A*68:02 [14] (source organism: Cowpox virus), in the test with HLA-B*58:01 (source organism: Cowpox virus) and with HLA-B*07:02 [7] (source organism: Cowpox virus) was not below 20 µM each time. In addition, the dissociation constant (Kd) is not below 20 µM in the test with HLA-A*11:01 (source organism: Cowpox virus), not below 20 µM with HLA-A*02:01 [15] (source organism: Cowpox virus), not below 20 µM in the test with HLA-B*57:01 (source organism: Cowpox virus) and 0.275 µM with HLA-A*24:03.
Take LEHGLYPQL: the Kd in the test with HLA-B*39:01 [16] was 0.931 µM; with HLA-A*02:06 (setting [23]) it was not below 20 µM; with HLA-B*44:02, not below 5 µM; with HLA-A*31:01 (setting [23]), not below 20 µM; with HLA-B*08:03 (setting [24]), not below 20 µM; with HLA-B*18:01 [6] (setting [23]), 0.034 µM. Also, the Kd was 0.017 µM with HLA-B*40:01 (setting [23]); not below 20 µM with HLA-A*69:01 (setting [23]); not below 20 µM in the test with HLA-A*01:01 (setting [23]); not below 20 µM with HLA-B*08:02 (setting [24]); not below 20 µM with HLA-A*68:02 [14] (setting [23]); not below 20 µM with HLA-B*58:01 (setting [23]). The Kd with HLA-B*07:02 [7] (setting [23]), with HLA-A*11:01 (setting [23]), with HLA-B*15:17 [17] (setting [23]), with HLA-A*02:01 [15] (setting [23]), with HLA-B*27:05 [18] (setting [23]) and with HLA-B*57:01 (setting [23]) was not below 20 µM throughout. For the same sequence, the Kd in the test with HLA-B*48:01 (setting [23]) was 0.634 µM; in the test with HLA-A*26:02 [8] (setting [24]), not below 20 µM; in the test with HLA-A*26:03 [9] (setting [24]), not below 20 µM.
YHRPLTGYM: the Kd with HLA-B*07:02 [19] is 0.302 µM; with HLA-A*26:02 [12] (setting [25]) it was not below 20 µM; with HLA-B*35:01 it was not below 20 µM; in the test with HLA-A*26:03 [13] (setting [25]) it was not below 20 µM; with HLA-B*15:01 [5] (source organism: Cowpox virus), not below 20 µM; in the test with HLA-B*08:03 (source organism: Variola virus), not below 20 µM. The dissociation constant (Kd) with HLA-B*39:01 [20], with HLA-B*18:01 [6] (source organism: Cowpox virus), with HLA-B*40:01 (source organism: Cowpox virus), in the test with HLA-A*69:01 (source organism: Cowpox virus), with HLA-A*01:01 (source organism: Cowpox virus) and with HLA-B*08:02 (source organism: Variola virus) was not below 20 µM in each case. Besides, the Kd with HLA-A*68:02 [14] (source organism: Cowpox virus), with HLA-B*58:01 (source organism: Cowpox virus), in the test with HLA-B*08:01 (source organism: Variola virus), with HLA-B*15:17 [17] (source organism: Cowpox virus), in the test with HLA-A*02:01 [15] (source organism: Cowpox virus) and in the test with HLA-B*27:05 [18] (source organism: Cowpox virus) was not below 20 µM in each case. The Kd with HLA-B*57:01 (source organism: Cowpox virus), with HLA-B*48:01 (source organism: Cowpox virus), with HLA-B*46:01 (source organism: Cowpox virus) and in the test with HLA-A*26:01 (source organism: Variola virus) was not below 20 µM in each case.
